Laboratory results as given in patent publication US20210355229A1 (JIANGSU HENGRUI MEDICINE, published 2021).

Biological target: T1, human OX40-FC-biotin (human OX40 recombinant protein with Fc tag, Acro Biosystems OX40-H5255, labeled with … (human, UniProt P43489 29-216, labeled with biotin (site not stated)))
T1 construct: range 29-216; Bought (Acro Biosystems OX40-H5255; printed once as OXO-H5255), expressed in HEK293; also called human Bio-OX40-FC; not shown: Fc tag of the bought protein
T1 sequence (looked up): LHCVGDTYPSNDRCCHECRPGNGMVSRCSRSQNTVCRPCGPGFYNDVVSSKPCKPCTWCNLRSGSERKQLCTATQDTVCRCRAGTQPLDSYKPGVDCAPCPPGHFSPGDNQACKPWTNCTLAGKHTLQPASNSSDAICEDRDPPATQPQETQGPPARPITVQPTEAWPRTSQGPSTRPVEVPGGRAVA
Test: capture ELISA, biotin-OX40-Fc
Description: 20xPBS buffer was diluted to 1 xwith deionized water. […] 100 μL of the diluted primary antibody was added to each well (the antibody to be tested was 5-fold diluted from the concentration of 10000 ng/ml, resulting in seven gradients, namely 10000 ng/ml, 2000 ng/ml, 400 ng/ml, 80 ng/ml, 16 ng/ml, 3.2 ng/ml, and 0.64 ng/ml, blank wells merely contained dilution solution, i.e., 2.5% skimmed milk in PBST), and incubated at 37° C. for 40 minutes. The plate was washed for 4 times with PBST, human OX40-FC-biotin (Acro biosystem, OXO-H5255, labeled biotin) was diluted with 2.5% skimmed milk in PBST, 100 μl was added to each well, incubated at 37° C. for 40 min, and the plate was washed for 4 times with PB ST. 100 μL TMB developing solution was added to each well, incubated for 3-15 minutes in dark at room temperature, 50 μl stop solution (1M sulfuric acid) was added to each well. The parameters were set for the microplate reader, the OD value was read at 450-630nm, and the test data were saved.

B1: humanized antibody hu4B5-V1 (antibody, human IgG1, V domains shown)
VH: QVQLQESGPGLVKPSETLSLTCTVSGFSLTSYGLHWIRQPPGKGLEWIGVIWSGGSTDYNAAFISRVTISVDTSKNQFSLKLSSVTAADTAVYYCAREEYDVWGQGTTVTVSS
VL: DIQMTQSPSSLSASVGDRVTITCRASQDISNYLNWYQQKPGKVPKLLIYYTSRLHSGVPSRFSGSGSGTDFTLTISSLQPEDVATYYCQQGNTLPWTFGGGTKVEIK
notes: hu4B5 VH0 + hu4B5 VL0
Work on B1 yielded an EC50 of 0.59 µg/mL.

B2: humanized antibody 2G3-hu3 (antibody, human IgG1, V domains shown)
VH: QVQLQESGPGLVKPSETLSLTCTVSGYSISRYSVHWVRQPPGKGLEWIGMIWDGGNTDYNSALKSRFTISRDNSKNTLYLQMNSLRAEDTAVYYCARNPLYFSYAMDYWGQGTLVTVSS
VL: DIQMTQSPSSLSASVGDRVTITCRASQDISNYLNWYQQKPGKAPKLLIYYTSRLQSGVPSRFSGSGSGTDYTLTISSLQPEDFATYYCQQVNTFPFTFGQGTKLEIK
notes: hu2G3 VH1 + hu2G3 VL2
B2: binds.

B3: humanized antibody hu4B5-V22 (antibody, human IgG1, V domains shown)
VH: QVQLQESGPGLVKPSETLSLTCTVSGFSLTSYGLHWIRQPPGKGLEWIGVIWSGGSTDYNAAFISRVTISVDTSKNQFSLKLSSVTAADTAVYYCAREEYDVWGQGTTVTVSS
VL: DIQMTQSPSSLSASVGDRVTITCRASQDISNYLNWYQQKPGGTVKLLIYYTSRLHSGVPSRFSGSGSGTDYTLTISSLQPEDVATYFCQQGNTLPWTFGGGTKVEIK
notes: hu4B5 VH0 + hu4B5 VL4; human IgG1 / human Kappa constant regions
B3: binds.

B4: humanized antibody hu4B5-V19 (antibody, human IgG1, V domains shown)
VH: QVQLQESGPGLVKPSETLSLTCTVSGFSLTSYGLHWIRQPPGKGLEWIGVIWSGGSTDYNAAFISRVTISKEDSKNQFSLKLSSVTAADTAVYYCAREEYDVWGQGTTVTVSS
VL: DIQMTQSPSSLSASVGDRVTITCRASQDISNYLNWYQQKPGGVPKLLIYYTSRLHSGVPSRFSGSGSGTDYTLTISSLQQEDVATYYCQQGNTLPWTFGGGTKVEIK
notes: hu4B5 VH1 + hu4B5 VL3; human IgG1 / human Kappa constant regions
B4: binds.

B5: humanized antibody hu4B5-V2 (antibody, human IgG1, V domains shown)
VH: QVQLQESGPGLVKPSETLSLTCTVSGFSLTSYGLHWIRQPPGKGLEWIGVIWSGGSTDYNAAFISRVTISKEDSKNQFSLKLSSVTAADTAVYYCAREEYDVWGQGTTVTVSS
VL: DIQMTQSPSSLSASVGDRVTITCRASQDISNYLNWYQQKPGKVPKLLIYYTSRLHSGVPSRFSGSGSGTDFTLTISSLQPEDVATYYCQQGNTLPWTFGGGTKVEIK
notes: hu4B5 VH1 + hu4B5 VL0; human IgG1 / human Kappa constant regions
B5: binds.

B6: humanized antibody hu4B5-V18 (antibody, human IgG1, V domains shown)
VH: QVQLQESGPGLVKPSETLSLTCTVSGFSLTSYGLHWIRQPPGKGLEWIGVIWSGGSTDYNAAFISRVTISVDTSKNQFSLKLSSVTAADTAVYYCAREEYDVWGQGTTVTVSS
VL: DIQMTQSPSSLSASVGDRVTITCRASQDISNYLNWYQQKPGGVPKLLIYYTSRLHSGVPSRFSGSGSGTDYTLTISSLQQEDVATYYCQQGNTLPWTFGGGTKVEIK
notes: hu4B5 VH0 + hu4B5 VL3; human IgG1 / human Kappa constant regions
B6: binds.

B7: humanized antibody hu4B5-V15 (antibody, human IgG1, V domains shown)
VH: QVQLQESGPGLVKPSETLSLTCTVSGFSLTSYGLHWIRQPPGKGLEWIGVIWSGGSTDYNAAFISRVTISVDTSKNQFSLKLSSVTAADTAVYYCAREEYDVWGQGTTVTVSS
VL: DIQMTQSPSSLSASVGDRVTITCRASQDISNYLNWYQQKPGGVPKLLIYYTSRLHSGVPSRFSGSGSGTDYTLTISSLQPEDVATYYCQQGNTLPWTFGGGTKVEIK
notes: hu4B5 VH0 + hu4B5 VL2; human IgG1 / human Kappa constant regions
B7: binds.

B8: humanized antibody hu4B5-V8 (antibody, human IgG1, V domains shown)
VH: QVQLQESGPGLVKPSETLSLTCTVSGFSLTSYGLHWIRQPPGKGLEWIGVIWSGGSTDYNAAFISRVTISKEDSKNQFSLKLSSVTAADTAVYYCAREEYDVWGQGTTVTVSS
VL: DIQMTQSPSSLSASVGDRVTITCRASQDISNYLNWYQQKPGKVPKLLIYYTSRLHSGVPSRFSGSGSGTDYTLTISSLQPEDVATYYCQQGNTLPWTFGGGTKVEIK
notes: hu4B5 VH1 + hu4B5 VL1; human IgG1 / human Kappa constant regions
B8: binds.

B9: humanized antibody hu4B5-V4 (antibody, human IgG1, V domains shown)
VH: QVQLKESGPGLVKPSETLSLTCTVSGFSLTSYGLHWFRQPPGKGLEWIGVIWSGGSTDYNAAFISRVTISKEDSKSQVSLKLSSVTAADTAVYYCAREEYDVWGQGTTVTVSS
VL: DIQMTQSPSSLSASVGDRVTITCRASQDISNYLNWYQQKPGKVPKLLIYYTSRLHSGVPSRFSGSGSGTDFTLTISSLQPEDVATYYCQQGNTLPWTFGGGTKVEIK
notes: hu4B5 VH3 + hu4B5 VL0; human IgG1 / human Kappa constant regions
B9: binds.

B10: humanized antibody hu4B5-V16 (antibody, human IgG1, V domains shown)
VH: QVQLQESGPGLVKPSETLSLTCTVSGFSLTSYGLHWIRQPPGKGLEWIGVIWSGGSTDYNAAFISRVTISKEDSKNQFSLKLSSVTAADTAVYYCAREEYDVWGQGTTVTVSS
VL: DIQMTQSPSSLSASVGDRVTITCRASQDISNYLNWYQQKPGGVPKLLIYYTSRLHSGVPSRFSGSGSGTDYTLTISSLQPEDVATYYCQQGNTLPWTFGGGTKVEIK
notes: hu4B5 VH1 + hu4B5 VL2; human IgG1 / human Kappa constant regions
B10: binds.

B11: humanized antibody hu4B5-V10 (antibody, human IgG1, V domains shown)
VH: QVQLKESGPGLVKPSETLSLTCTVSGFSLTSYGLHWFRQPPGKGLEWIGVIWSGGSTDYNAAFISRVTISKEDSKSQVSLKLSSVTAADTAVYYCAREEYDVWGQGTTVTVSS
VL: DIQMTQSPSSLSASVGDRVTITCRASQDISNYLNWYQQKPGKVPKLLIYYTSRLHSGVPSRFSGSGSGTDYTLTISSLQPEDVATYYCQQGNTLPWTFGGGTKVEIK
notes: hu4B5 VH3 + hu4B5 VL1; human IgG1 / human Kappa constant regions
B11 gave an EC50 of 0.76 µg/mL.

B12: humanized antibody hu4B5-V14 (antibody, human IgG1, V domains shown)
VH: QVQLKESGPGLVKPSETLSLTCTVSGFSLTSYGLHWFRQPPGKGLEWLGVIWSGGSTDYNAAFISRLTISKEDSKSQVSLKLSSVTAADTAVYYCAREEYDVWGQGTTVTVSS
VL: DIQMTQSPSSLSASVGDRVTITCRASQDISNYLNWYQQKPGGTVKLLIYYTSRLHSGVPSRFSGSGSGTDYTLTISSLQPEDVATYFCQQGNTLPWTFGGGTKVEIK
notes: hu4B5 VH4 + hu4B5 VL4; human IgG1 / human Kappa constant regions
B12 gave an EC50 of 0.536 µg/mL.

B13: humanized antibody hu4B5-V23 (antibody, human IgG1, V domains shown)
VH: QVQLQESGPGLVKPSETLSLTCTVSGFSLTSYGLHWIRQPPGKGLEWIGVIWSGGSTDYNAAFISRVTISKEDSKNQFSLKLSSVTAADTAVYYCAREEYDVWGQGTTVTVSS
VL: DIQMTQSPSSLSASVGDRVTITCRASQDISNYLNWYQQKPGGTVKLLIYYTSRLHSGVPSRFSGSGSGTDYTLTISSLQPEDVATYFCQQGNTLPWTFGGGTKVEIK
notes: hu4B5 VH1 + hu4B5 VL4; human IgG1 / human Kappa constant regions
B13: binds.

B14: humanized antibody hu4B5-V21 (antibody, human IgG1, V domains shown)
VH: QVQLKESGPGLVKPSETLSLTCTVSGFSLTSYGLHWFRQPPGKGLEWIGVIWSGGSTDYNAAFISRVTISKEDSKSQVSLKLSSVTAADTAVYYCAREEYDVWGQGTTVTVSS
VL: DIQMTQSPSSLSASVGDRVTITCRASQDISNYLNWYQQKPGGVPKLLIYYTSRLHSGVPSRFSGSGSGTDYTLTISSLQQEDVATYYCQQGNTLPWTFGGGTKVEIK
notes: hu4B5 VH3 + hu4B5 VL3; human IgG1 / human Kappa constant regions
B14: binds.

B15: humanized antibody hu4B5-V25 (antibody, human IgG1, V domains shown)
VH: QVQLKESGPGLVKPSETLSLTCTVSGFSLTSYGLHWFRQPPGKGLEWIGVIWSGGSTDYNAAFISRVTISKEDSKSQVSLKLSSVTAADTAVYYCAREEYDVWGQGTTVTVSS
VL: DIQMTQSPSSLSASVGDRVTITCRASQDISNYLNWYQQKPGGTVKLLIYYTSRLHSGVPSRFSGSGSGTDYTLTISSLQPEDVATYFCQQGNTLPWTFGGGTKVEIK
notes: hu4B5 VH3 + hu4B5 VL4; human IgG1 / human Kappa constant regions
B15: binds.

B16: humanized antibody hu4B5-V6 (antibody, human IgG1, V domains shown)
VH: QVQLQESGPGLVKPSETLSLTCTVSGFSLTSYGLHWIRQPPGKGLEWIGVIWSGGSTDYNAAFISRVTISVDTSKNQFSLKLSSVTAADTAVYYCAREEYDVWGQGTTVTVSS
VL: DIQMTQSPSSLSASVGDRVTITCRASQDISNYLNWYQQKPGKVPKLLIYYTSRLHSGVPSRFSGSGSGTDYTLTISSLQPEDVATYYCQQGNTLPWTFGGGTKVEIK
notes: hu4B5 VH0 + hu4B5 VL1; human IgG1 / human Kappa constant regions
B16: binds.
